Here are results for one molecule from patent US20220041726A1 (Dana-Farber, published 2022).

For this assay, the target named is T1, mouse PD-1 (mouse, UniProt Q02242 25-288).
T1 construct: also called 300-mouse PD-1 transfectants; 300-PD-1 transfectants
T1 sequence: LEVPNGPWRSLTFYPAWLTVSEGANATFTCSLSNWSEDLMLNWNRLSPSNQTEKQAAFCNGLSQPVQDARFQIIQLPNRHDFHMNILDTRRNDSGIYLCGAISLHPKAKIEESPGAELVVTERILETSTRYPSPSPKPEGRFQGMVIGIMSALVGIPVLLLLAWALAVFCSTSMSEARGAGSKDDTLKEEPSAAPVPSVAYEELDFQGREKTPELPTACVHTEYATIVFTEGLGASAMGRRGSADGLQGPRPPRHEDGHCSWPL
The assay can be described thus: hybridoma screened by flow cytometry on PD-1 transfectants; described in words only. (In flow cytometry, cells or beads pass a laser one at a time.)

Description: The mice were immunized first with human PD-1-mIgG2a fusion protein (made in Freeman lab) in complete Freund's adjuvant and thereafter with alternating doses of human PD-1-mIgG2a fusion protein and mouse PD-1-Ig fusion protein in incomplete Freund's adjuvant. Mice were given a final boost with antigen and fused with SP2/0 myeloma cells. The PD-1 specific hybridomas were first identified when this fusion was screened by flow cytometry on 300-human PD-1 and 300-mouse PD-1 transfectants. Hybridomas were subcloned to stability. The mAbs were characterized for their capacity to bind to human and/or mouse PD-1 and for their affinity.

B1: 8H3 mouse anti-mouse PD-1 mAb (antibody, mouse IgG1, V domains shown)
VH: QVQLQQSGAELARPGASVKMSCKASGYTFTSYTMHWVKQRPGQGLEWIGYIHPSTGYIYYNQKFKDKATLTADKSSSTAYMQLSSLTSEDSAVYYCARKGTYLFDYWGQGTTLTVSS
VL: DIVMTQSQKFMSTSVGDRVSVTCKASQNVGTNVAWYQQKPGQSPKALIYSASYRYSGVPDRFTGSGSGTDFTLTISNMQSEDLAEYFCQQYNNYPLTFGAGTMLELK
notes: the light chain is kappa; also called 332.8H3; αPD-1 mAb (8H3)
B1: the binding result was “binds”.
